Drawing on US20260043020A1, “BINDING MEMBERS WITH ALTERED DIVERSITY SCAFFOLD DOMAINS” (priority 2016, published 2026), this text covers % transcytosis after 6 h (in vitro rat BBB model) for 1 substance.

For this experiment, the target named is rat TFR (rat) (UniProt Q99376). In words: cell-based or functional assay.

Substance OX26-Fab returned a % transcytosis after 6 h (in vitro rat BBB model) of 0.2%.
